The text below walks through data of patent US20240026022A1 (OSSIANIX, published 2024).

In assay [1] the target is T1, human TfR-1 on the cell surface (hCMEC/D3 and SY-SH5Y cells) (human, UniProt P02786 1-760).
T1 construct: whole, on cells; also called cell surface TfR1; cell-surface hTfR1
In words: flow cytometry on hCMEC/D3 cells, percent positive cells, on ice. The method, then: FIG. 2. Binding of TXP1 to hCMEC/D3 cells by flow cytometry. Approximately 10,000 cells were incubated with serially diluted TXP1 for 1 hour on ice. TXP1 binding was detected using anti-human IgG Alexa488-conjugated secondary antibody. PI staining was used to exclude dead cells from the analysis. The cells were fixed and analyzed by flow cytometry. 1,000 cells per condition were acquired. Gating of cells stained with secondary antibody only allowed to set a fluorescence threshold for negative signal.
(§1) Flow cytometry. hCMEC/D3 cells (Weksler 2013) were seeded onto V-bottom 96-well plates at a density of 1×10⁴ cells/well. After blocking in PBS containing 10% BSA (FACS buffer) for 20 min on ice, cells were incubated with serial dilutions of TXP1. Cells were stained with propidium iodine (PI; Biolegend) for 20 min on ice, followed by anti-hFc conjugated to Alexa488 diluted 1:300 (Jackson ImmunoResearch) for 30 min on ice. After fixation in 4% PFA for 15 min on ice, the cells were analyzed on a CytoFlex flow cytometer (Beckman Coulter). Gating of cells stained with secondary antibody established the fluorescence threshold for the negative signal. The fluorescence intensity of approximately 1000 cells per condition was measured. Dead or dying cells were excluded from the analysis by propidium iodide staining. EC50 values were calculated using a four parametric non-linear regression model.

The target of another assay is T2, HSA (human, UniProt P02768 25-609).
T2 construct: Negative control
T2 sequence (P02768 25-609): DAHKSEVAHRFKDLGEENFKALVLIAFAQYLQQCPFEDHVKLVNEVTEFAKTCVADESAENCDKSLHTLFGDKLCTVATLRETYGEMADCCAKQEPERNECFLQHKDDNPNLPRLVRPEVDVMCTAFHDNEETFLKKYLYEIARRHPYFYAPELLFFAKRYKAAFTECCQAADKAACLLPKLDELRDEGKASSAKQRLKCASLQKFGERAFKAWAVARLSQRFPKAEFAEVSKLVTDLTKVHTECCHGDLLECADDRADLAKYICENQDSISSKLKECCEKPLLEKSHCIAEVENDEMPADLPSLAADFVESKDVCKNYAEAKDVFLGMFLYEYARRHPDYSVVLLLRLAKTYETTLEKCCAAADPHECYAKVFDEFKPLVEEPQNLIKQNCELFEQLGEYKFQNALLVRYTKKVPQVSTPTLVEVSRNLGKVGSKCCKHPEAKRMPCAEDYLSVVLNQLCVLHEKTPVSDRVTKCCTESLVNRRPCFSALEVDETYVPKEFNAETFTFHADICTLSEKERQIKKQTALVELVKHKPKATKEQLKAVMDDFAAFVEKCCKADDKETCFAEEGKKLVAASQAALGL
The assay can be described thus: ELISA, plate coated with HSA, detection with anti-hFc HRP and TMB. Here is the method:
(§2) FIG. 1. Cross-species reactivity of TXP1 assessed by ELISA. Plates were coated with either mouse, human, cynomolgus or rat TfR-1. HSA was used as a negative control. Serial dilutions of TXP1 (a VNAR antibody) were added to the plate and binding was measured by end-point ELISA upon incubation with secondary anti-hFc HRP-conjugated antibodies and visualization with TMB.
(§3) TfR-1 binding ELISA. Nunc MaxiSorp plates were coated with 100 μl of 1 μg/ml of in-house purified recombinant human, mouse, rat and cynomolgus TfR-1 and incubated at 4° C. overnight. Plates were incubated with blocking buffer (2.5% non-fat dry milk in PBST) for 1 h at RT. Serially-diluted TXP1 was mixed with non-fat dry milk in PBST to a final concentration of 2.5% and incubated for 30 min. Blocked TXP1 solutions (100 μl) were transferred to the blocked plates and incubated for 1 hr. Plates were washed with PBST and incubated with anti-hFc HRP-conjugated antibody diluted 1:5,000 (Sigma) in blocking buffer for 30 min. Plates were washed and developed with SureBlue™ TMB substrate, the reaction stopped with 1% HCl and absorbance measured at 450 nm.

A further assay addresses T3, recombinant rat TfR-1 (rat, UniProt Q99376 87-761, limits assumed).
T3 construct: also called rTfR-1
In words: ELISA, plate coated with recombinant rat TfR-1, detection with anti-hFc HRP and TMB. Here is the method: as §2, §3

The next assay concerns the target T4, recombinant mouse TfR-1 (mouse, UniProt Q62351 89-763, limits assumed).
T4 construct: also called mTfR-1
In words: ELISA, plate coated with recombinant mouse TfR-1, detection with anti-hFc HRP and TMB. Here is the method: as §2, §3

Assay [2] deals with T5, recombinant human TfR-1 (transferrin receptor-1) (human, UniProt P02786 89-760).
T5 construct: extracellular domain; In-house purified recombinant protein; also called hTfR-1; hTfR1
T5 sequence (P02786 89-760): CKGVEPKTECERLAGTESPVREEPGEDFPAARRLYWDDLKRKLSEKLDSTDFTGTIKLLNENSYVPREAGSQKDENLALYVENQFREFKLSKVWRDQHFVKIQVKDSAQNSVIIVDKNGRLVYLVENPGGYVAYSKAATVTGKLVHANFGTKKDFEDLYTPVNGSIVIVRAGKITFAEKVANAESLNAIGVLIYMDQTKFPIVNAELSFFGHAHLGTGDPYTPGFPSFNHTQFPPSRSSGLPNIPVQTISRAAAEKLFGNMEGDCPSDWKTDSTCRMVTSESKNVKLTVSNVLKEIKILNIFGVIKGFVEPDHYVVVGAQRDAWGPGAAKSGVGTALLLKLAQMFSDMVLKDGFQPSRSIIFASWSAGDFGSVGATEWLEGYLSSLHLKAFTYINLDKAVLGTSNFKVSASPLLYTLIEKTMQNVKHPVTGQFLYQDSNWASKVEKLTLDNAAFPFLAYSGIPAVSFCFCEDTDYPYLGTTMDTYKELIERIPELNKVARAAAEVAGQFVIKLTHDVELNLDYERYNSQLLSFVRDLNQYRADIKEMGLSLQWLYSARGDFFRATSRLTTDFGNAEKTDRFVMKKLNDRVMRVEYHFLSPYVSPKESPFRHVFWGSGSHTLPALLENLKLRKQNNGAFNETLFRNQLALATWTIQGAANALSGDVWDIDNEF
In words: ELISA, plate coated with human TfR-1, anti-hFc HRP, 4-parameter fit; drawn table under the curves. The method, then:
(§4) FIG. 15. Binding activity of TXP1 and deimmunized variants assessed by ELISA. Plates were coated with either human or cynomolgus or rat TfR-1. HSA was used as a negative control. Serial dilutions of TXP1 (a VNAR antibody) or the variants as Fc fusions were added to the plate and binding was measured by end-point ELISA upon incubation with secondary anti-hFc HRP-conjugated antibodies and visualization with TMB.
as §3

For assay [3], the target named is T6, recombinant cynomolgus TfR-1 (cynomolgus, UniProt H9EXL1 89-760 (rhesus entry)).
T6 construct: also called cTfR-1; cTfR1
T6 sequence (chain, as listed by the source): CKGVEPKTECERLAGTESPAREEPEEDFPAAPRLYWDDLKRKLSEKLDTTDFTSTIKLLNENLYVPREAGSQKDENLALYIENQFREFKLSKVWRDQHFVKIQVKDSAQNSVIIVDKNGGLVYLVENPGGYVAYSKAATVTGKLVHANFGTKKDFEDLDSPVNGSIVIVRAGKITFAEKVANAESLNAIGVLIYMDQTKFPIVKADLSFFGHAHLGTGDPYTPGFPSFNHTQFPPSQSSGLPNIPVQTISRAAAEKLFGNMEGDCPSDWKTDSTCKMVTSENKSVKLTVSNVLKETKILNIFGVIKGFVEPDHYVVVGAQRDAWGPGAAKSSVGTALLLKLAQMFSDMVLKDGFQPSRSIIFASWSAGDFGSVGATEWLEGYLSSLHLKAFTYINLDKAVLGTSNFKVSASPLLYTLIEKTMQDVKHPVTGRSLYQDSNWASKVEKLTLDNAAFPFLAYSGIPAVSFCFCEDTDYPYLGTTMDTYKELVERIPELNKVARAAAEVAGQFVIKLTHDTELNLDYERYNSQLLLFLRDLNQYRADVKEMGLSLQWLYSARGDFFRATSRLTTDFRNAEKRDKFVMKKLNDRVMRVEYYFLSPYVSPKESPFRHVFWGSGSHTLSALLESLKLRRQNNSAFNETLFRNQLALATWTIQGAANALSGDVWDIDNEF
In words: ELISA, plate coated with cynomolgus TfR-1, anti-hFc HRP, 4-parameter fit; drawn table under the curves. The method, then:
as §4, §3

For assay [4], the target named is T5, recombinant human TfR-1 (transferrin …). The assay can be described thus: ELISA on hTfR-1 captured by plate-coated human Tf (receptor already bound to Tf), detection with anti-hFc HRP and TMB. The method, then: Competition ELISAs. For competition studies, MaxiSorp plates were coated with 100 μl of human Tf, at the concentration of 5 μg/ml overnight at 4° C. Plates were washed with phosphate-buffered saline containing 0.1% Tween20 (PBST) and blocked for 1 h with 2.5% BSA in PBST. Wells were incubated with 50 μl of hTfR-1 at 10 μg/ml for 1 h at RT and washed before adding serially diluted TXP1 and A06 VNAR antibodies for 1 h at RT. Following washing, 100 μl of 1:5,000 anti-hFc HRP-conjugated antibody (Sigma) diluted in 2.5% BSA in PBST was added and incubated for 1 h. Plates were washed and developed with SureBlue™ TMB substrate, the reaction stopped with 1% HCl and absorbance measured at 450 nm.
TXP1 competition with Tf for binding to TfR-1 was assessed by ELISA. Plates coated with Tf were used to capture hTfR-1 before incubation with serial dilutions of TXP1, A06 VNAR antibody or isotype control G12 VNAR antibody. While TXP1 and A06 VNAR antibody bind with similar nM KD in the absence of Tf (Table 5), when TfR-1 was bound to Tf, TXP1 but not the A06 VNAR antibody was still able to bind the receptor (FIG. 4).

The target is the same in assay [5]. The assay can be described thus: SPR.
Assay [6] deals with T6, recombinant cynomolgus TfR-1. In words: SPR.
For assay [7], the target named is T1, human TfR-1 on the cell surface …. In words: flow cytometry on hCMEC/D3 cells, 1 h on ice, binding to cell surface TfR1. The method, then: as §1, with “Dead or dying cells were excluded from the analysis by propidium iodide staining.” left out
Functional activity of the fully deimmunised variants was assessed using the human endothelial cell line hCMEC/D3 and the human neuronal cell line SY-SH5Y. Binding to hCMEC/D3 cells was assessed by incubation with serial antibody dilutions for 1 h on ice to avoid internalisation. The cells were fixed and binding to cell surface TfR1 was measured by flow cytometry. […] Internalisation via cell-surface hTfR1 was assessed using the hCMEC/D3 and SY-SH5Y cell lines by incubation with the antibodies for 1 hour at 37° C.

T1 sequence (P02786 whole entry): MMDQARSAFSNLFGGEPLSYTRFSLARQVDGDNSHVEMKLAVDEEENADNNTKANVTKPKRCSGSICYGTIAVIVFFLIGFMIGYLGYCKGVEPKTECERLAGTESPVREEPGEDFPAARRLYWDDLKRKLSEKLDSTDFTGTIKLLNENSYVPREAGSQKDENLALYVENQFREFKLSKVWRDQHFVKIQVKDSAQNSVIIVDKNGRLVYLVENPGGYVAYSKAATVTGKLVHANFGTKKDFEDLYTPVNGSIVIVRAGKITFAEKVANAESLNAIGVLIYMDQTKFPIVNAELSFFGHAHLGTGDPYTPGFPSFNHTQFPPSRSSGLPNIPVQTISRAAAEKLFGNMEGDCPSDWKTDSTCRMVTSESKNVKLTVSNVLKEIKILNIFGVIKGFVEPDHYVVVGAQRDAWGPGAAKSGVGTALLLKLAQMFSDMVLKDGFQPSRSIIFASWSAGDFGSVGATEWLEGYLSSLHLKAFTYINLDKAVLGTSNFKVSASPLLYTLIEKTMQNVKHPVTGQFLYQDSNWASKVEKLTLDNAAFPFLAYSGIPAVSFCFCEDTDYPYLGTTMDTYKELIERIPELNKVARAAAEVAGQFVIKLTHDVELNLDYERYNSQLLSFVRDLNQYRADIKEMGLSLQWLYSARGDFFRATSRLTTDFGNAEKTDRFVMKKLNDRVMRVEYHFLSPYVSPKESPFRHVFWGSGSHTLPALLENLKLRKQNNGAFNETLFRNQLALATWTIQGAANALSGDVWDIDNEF
T4 sequence (Q62351 89-763 limits assumed): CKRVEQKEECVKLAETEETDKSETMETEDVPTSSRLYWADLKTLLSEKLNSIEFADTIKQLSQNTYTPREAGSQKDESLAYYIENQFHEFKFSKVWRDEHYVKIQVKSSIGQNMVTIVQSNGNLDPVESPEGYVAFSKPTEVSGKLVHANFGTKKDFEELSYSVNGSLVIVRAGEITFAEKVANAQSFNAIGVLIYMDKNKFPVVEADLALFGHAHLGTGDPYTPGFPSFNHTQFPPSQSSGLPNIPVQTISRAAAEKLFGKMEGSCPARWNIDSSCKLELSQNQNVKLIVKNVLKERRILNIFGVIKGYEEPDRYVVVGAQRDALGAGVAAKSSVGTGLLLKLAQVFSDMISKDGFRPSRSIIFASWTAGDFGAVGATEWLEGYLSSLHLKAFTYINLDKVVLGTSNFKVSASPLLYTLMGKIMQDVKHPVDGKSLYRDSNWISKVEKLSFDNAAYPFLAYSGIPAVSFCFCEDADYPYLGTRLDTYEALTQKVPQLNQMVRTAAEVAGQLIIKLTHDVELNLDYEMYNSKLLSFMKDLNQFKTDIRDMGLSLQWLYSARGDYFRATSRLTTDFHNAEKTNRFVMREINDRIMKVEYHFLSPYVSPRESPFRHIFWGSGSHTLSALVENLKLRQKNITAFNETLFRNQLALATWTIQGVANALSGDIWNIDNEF
T3 sequence (Q99376 87-761 limits assumed): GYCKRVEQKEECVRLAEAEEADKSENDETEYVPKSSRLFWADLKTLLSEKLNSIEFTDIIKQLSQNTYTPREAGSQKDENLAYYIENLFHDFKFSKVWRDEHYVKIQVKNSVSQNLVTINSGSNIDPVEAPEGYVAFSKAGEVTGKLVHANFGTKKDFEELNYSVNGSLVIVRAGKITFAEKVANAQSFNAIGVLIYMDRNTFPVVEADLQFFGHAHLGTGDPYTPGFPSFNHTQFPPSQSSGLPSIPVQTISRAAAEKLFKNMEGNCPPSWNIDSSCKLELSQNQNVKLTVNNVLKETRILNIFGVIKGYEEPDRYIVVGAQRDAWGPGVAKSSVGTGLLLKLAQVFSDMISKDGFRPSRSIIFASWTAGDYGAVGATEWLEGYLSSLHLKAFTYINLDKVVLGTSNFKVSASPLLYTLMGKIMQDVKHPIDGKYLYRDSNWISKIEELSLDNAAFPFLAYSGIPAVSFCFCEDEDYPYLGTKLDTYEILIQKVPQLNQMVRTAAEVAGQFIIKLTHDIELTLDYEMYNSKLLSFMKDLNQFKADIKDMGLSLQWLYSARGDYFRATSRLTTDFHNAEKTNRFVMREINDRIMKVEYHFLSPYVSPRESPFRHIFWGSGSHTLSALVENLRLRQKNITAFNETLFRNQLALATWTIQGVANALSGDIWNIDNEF

B1: TXP1 (VNAR-txp1 fused to the N-terminus of human IgG1 Fc with attenuated effector function) (Fc fusion)
VNAR: ARVDQTPQTITKETGESLTINCVLRDSNCALSSTYWYRKKSGSTNEENISKGGRYVETVNSGSKSFSLKINDLTVEDSGTYRCNVVGTWCMSWRDVYGGGTAVTVNA
notes: Bivalent VNAR-hFc, VNAR at the N-terminus of hFc IgG1; also called VNAR-txp1-hFc; VNAR antibody TXP1; not shown: Human IgG1 Fc with AEF mutations (E233P/L234V/L235A/ΔG236+A327G/A330S/P331S), and any hinge or linker at the junction
In the case of B1, the EC50 in [1] came to 10.1 nM; in assay [2], 2.9 nM; in assay [3] it was 3.3 nM. In addition, the binding result in the assay with HSA, with recombinant rat TfR-1 and with recombinant mouse TfR-1 was “no binding (tested: about 2e-6 M)” throughout. In assay [4], the “EC50 (read off the curve)” value was about 10 nM.

B2: TXP1D4 (deimmunized variant VNAR-r2d4 fused to human IgG1 Fc) (Fc fusion)
VNAR: ARVDQTPQTATKETGESLTINCVLRDSNCALSSTYWYRKKSGSTNEENISKGGRKYVETVESGSKSFSLKINDLTVEDSGTYRCNVVGTWCMSWRDVSGDGTVVTVNA
notes: also called VNAR-r2d4-Fc; not shown: Human IgG1 AEF Fc and any hinge or linker at the junction
In the case of B2, in [5], the Kd came to 3 nM, the koff was 0.00026 s⁻¹ and the on-rate (kon) was 87000 M⁻¹ s⁻¹. Besides, in assay [6], the Kd stood at 1.7 nM, the koff worked out at 0.00014 s⁻¹ and the association rate constant (kon) worked out at 87000 M⁻¹ s⁻¹. For the same molecule, a half-maximal effect in [7] (EC50) was put at 2.1 nM.
